Patent US20230133118A1, “COMPOSITIONS AND METHODS FOR TREATING CANCER” (Adagene AG, priority 2020, published 2023)
Like-named read-outs stand apart in the source and are kept apart here.

Experiments:
[1] = test system: L5178-S murine T cell lymphoma; assay: L5178-S murine T cell lymphoma syngeneic model; format: in vivo, DBA/2 mice; conditions: 20 mg/kg i.p. once every 3 days
Source text: The animals were randomized and treatment started when tumor volumes reach 50-80 mm^3, or on the day of cell inoculation (FIGS. 17A and 17C). Each group consisted of 8 tumor-bearing mice. […] Tumor growth and animal body weight were monitored every 2-3 days.

CD137 = CD137 (Homo sapiens, UniProt Q07011); assay: Cellular NFκB reporter gene assay (CD137-expressing NFκB-Luc Jurkat reporter cells); format: cell-based; parameters: expressed in transfected cells; host or cells: NFκB-Luc Jurkat reporter cells (with or without co-cultured CHO-K1 cells expressing human FcγRIIb)
Chain of CD137 (Q07011 24-255): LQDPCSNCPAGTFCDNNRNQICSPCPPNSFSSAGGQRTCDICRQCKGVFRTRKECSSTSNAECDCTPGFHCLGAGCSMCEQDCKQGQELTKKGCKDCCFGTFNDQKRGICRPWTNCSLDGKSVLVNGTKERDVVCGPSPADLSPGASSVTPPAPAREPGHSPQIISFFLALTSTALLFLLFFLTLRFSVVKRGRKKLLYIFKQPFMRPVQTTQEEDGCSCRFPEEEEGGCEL
Method: The CD137-expressing NFκB-Luc Jurkat reporter cells were stimulated with the anti-CD137 antibodies in the absence (left panel) or presence (right panel) of co-cultured CHO-K1 cell expressing human FcγRIIb. Luciferase activity was measured by bioluminescence assay.

LLC-CD20 cells = assay: LLC-CD20 lung cancer model, ADG106 with rituximab; format: in vivo, C57BL/6 mice; conditions: 10 mg/kg i.p. twice a week for 3 weeks
Source text: C57BL/6 mice (n=6 per group, female, 6-8 weeks old) were transplanted subcutaneously with 5×10^5 LLC-CD20 cells, a Lewis lung cancer cell line expressing CD20. […] Tumor growth was monitored twice weekly and reported as mean tumor volume ±SEM over time.

[2] = human, in vivo, iv
Method: Blood samples for PK analysis were collected at Cycle 1 (Day 1: pre-dose and 2, 6, 12, and 24 hours after the end of infusion; once on Days 8, 15, and 22), Day 1 pre-dose and 2 hours after the end of infusion of subsequent cycles, and at the End of Treatment. […] PK parameters were estimated using a non-compartmental method with WinNonlin.

[3] = test system: CT-26 (colon carcinoma), H22 (liver cancer), EMT6 (breast cancer); assay: Single agent efficacy in syngeneic mouse tumor models (CT-26, H22, EMT6); format: in vivo
rabbit blood = assay: In vitro hemolysis in rabbit blood; conditions: concentrations up to 2.54 mg/mL
Source text: Furthermore, with the cytoplasmic nature of the staining, no significant biological relevancy is anticipated.

Substance: ADG106: fully human agonistic anti-CD137 monoclonal IgG4 antibody; heavy chain SEQ ID NO: 10, light chain SEQ ID NO: 11
- antitumor activity [1]: has antitumor activity
- concentration saturating activation of CD137 receptor signaling (CD137; crosslinking-dependent, in vitro): 1 µg/mL
- EC80 of NFκB signaling activation (CD137; nonlinearly regressed concentration-effect curve): ≤ 1.8 µg/mL
- human CD137 agonism following crosslinking (CD137; with crosslinking): function as agonists
- tumor growth, single agent (LLC-CD20 cells): only weakly inhibited tumor growth
- T1/2 ([2]; 0.03 mg/kg): 87 h
- T1/2 ([2]; 0.3 mg/kg): 159 h
- T1/2 ([2]; 1 mg/kg): 146.3 h
- T1/2 ([2]; 3 mg/kg): 149 h
- single agent efficacy in CT-26, H22 and EMT6 syngeneic models ([3]; mouse, in vivo): single agent anti-tumor efficacy
- median effective dose (ED50) ([3]; syngeneic mouse liver and breast cancer models): approximately 1 mg/kg
- hemolysis (rabbit blood): no ADG106-related hemolysis
